This series concerns NCCCC(=O)O.

Sequence of 4-aminobutyrate aminotransferase, mitochondrial (Sus scrofa), P80147 (P80147 whole entry): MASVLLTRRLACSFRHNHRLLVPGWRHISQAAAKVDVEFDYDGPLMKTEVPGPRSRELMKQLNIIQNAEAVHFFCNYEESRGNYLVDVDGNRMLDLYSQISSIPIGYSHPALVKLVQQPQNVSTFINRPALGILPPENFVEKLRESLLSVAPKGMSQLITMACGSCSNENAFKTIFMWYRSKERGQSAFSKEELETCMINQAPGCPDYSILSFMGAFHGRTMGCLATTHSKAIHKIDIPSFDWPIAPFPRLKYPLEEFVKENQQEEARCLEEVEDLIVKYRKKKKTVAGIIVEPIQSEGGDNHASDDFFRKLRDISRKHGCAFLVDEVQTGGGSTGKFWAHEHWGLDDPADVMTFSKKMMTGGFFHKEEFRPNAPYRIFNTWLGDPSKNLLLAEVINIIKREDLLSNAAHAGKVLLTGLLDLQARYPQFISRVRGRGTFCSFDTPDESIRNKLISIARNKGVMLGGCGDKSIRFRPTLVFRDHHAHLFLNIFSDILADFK
Description: Michaelis-Menten constant of the compound.

On to “4-aminobutyrate aminotransferase, mitochondrial (Sus scrofa), P80147”, for which the Michaelis constant (Km) is 2500 µM.

As usually defined, the Km is the substrate concentration at which the rate is half of its maximum.

The values above are taken from ChEMBL document CHEMBL1132182, “2,6-Difluorophenol as a bioisostere of a carboxylic acid: bioisosteric analogues of gamma-aminobutyric acid” (J Med Chem, 1999).
